US20230242902A1, “A HIGHLY ERROR-PRONE […] R[…] FOR TARGETED CONTINUOUS EVOLUTION IN VIVO” (The Regents of the University of California, priority 2017, published 2023)

B1: N683A: TP-DNAP1 variant (protein)
chain: MDYKDKALNDLRNVYADFDSLPLDFRQILIKDRATLLQKEDVEKKILERQEDAKKYAEYLKQSEIPERISLPNIKRHKGVSISFEETSEDMVLEPRPFIFDGLNIRCFRRETIFSLKNKILNMVKESSSFKNVSRQSVSFMYFKIFNKGKVIASTKSVNIYEDKIDERLEDLCNNFDDVLKKIIDVTYGYESLFVSETYSYVIFYAKSIYFPQPRCVNNWGNNIPNILTFDSFKLFTANKNNVSCIKQCSRFLWQKDFNTLEEMIEYKNGNICIVTPQLHINDVRDIKSFNDIRLYSESPIKTFSVIDNTITYLFYFKEHLGVIFNITKSRHDRRVTKFSPLSKFSDVKNITVCFDIESYFDPEKESNQVNIPFICCASIIYNKVIGNIVDFEGRDCVAQMIEYVVDICGELNISSVELIAHNGGGYDFHYILSSMYNPAAIKNILIRNNSFISFNFAHDGVKFSVKDSYSFLLCSLANASKAFLNEETFKKTDFPHHDLKTADDLYKVYKEWSSVNTEINHVVEKEKLLITSEHIVNFTKNDKSKTLIEWSKDYCRNDVLVLSKVWLEFKNAVEDIFNCELVDQTMTLAGLSYKLFQANMPFDVELRHPNKEDYFNMREALIGGRCISVNGIYKDVLCLDVKSLYPASMAFYDQPYGSFKRVSSRPKDELGIYYVRVTPNRANKSNFFPIRSHNKITYNNFEESTYIAWYTNVDIDIGLSEGHNIEYIPFDSYGNIGYSWSKKGKIFEKYIKDVLYKLKIKYEKQNNKVKRNVIKIIMNSLWGKFAQKWVNFEYFIKSEDDIDFESEEAYKIWDTDFMLIKKIKESTYSSKPIQNGVFTLSWARYHMKSIWDAGAKEGAECIYSDTDSIFVHKEHFKKNAKFMLNGLKVPIIGSEVGQLELECEFDKLLCAGKKQYMGFYTYFQDGKPCIKEKKRFKGIPSNYIIPELYAHLLSGADKEAKIQFLKFRREWGSVKGYIENKTVKAT
B2: N684D: TP-DNAP1 variant (protein)
chain: MDYKDKALNDLRNVYADFDSLPLDFRQILIKDRATLLQKEDVEKKILERQEDAKKYAEYLKQSEIPERISLPNIKRHKGVSISFEETSEDMVLEPRPFIFDGLNIRCFRRETIFSLKNKILNMVKESSSFKNVSRQSVSFMYFKIFNKGKVIASTKSVNIYEDKIDERLEDLCNNFDDVLKKIIDVTYGYESLFVSETYSYVIFYAKSIYFPQPRCVNNWGNNIPNILTFDSFKLFTANKNNVSCIKQCSRFLWQKDFNTLEEMIEYKNGNICIVTPQLHINDVRDIKSFNDIRLYSESPIKTFSVIDNTITYLFYFKEHLGVIFNITKSRHDRRVTKFSPLSKFSDVKNITVCFDIESYFDPEKESNQVNIPFICCASIIYNKVIGNIVDFEGRDCVAQMIEYVVDICGELNISSVELIAHNGGGYDFHYILSSMYNPAAIKNILIRNNSFISFNFAHDGVKFSVKDSYSFLLCSLANASKAFLNEETFKKTDFPHHDLKTADDLYKVYKEWSSVNTEINHVVEKEKLLITSEHIVNFTKNDKSKTLIEWSKDYCRNDVLVLSKVWLEFKNAVEDIFNCELVDQTMTLAGLSYKLFQANMPFDVELRHPNKEDYFNMREALIGGRCISVNGIYKDVLCLDVKSLYPASMAFYDQPYGSFKRVSSRPKDELGIYYVRVTPNRNDKSNFFPIRSHNKITYNNFEESTYIAWYTNVDIDIGLSEGHNIEYIPFDSYGNIGYSWSKKGKIFEKYIKDVLYKLKIKYEKQNNKVKRNVIKIIMNSLWGKFAQKWVNFEYFIKSEDDIDFESEEAYKIWDTDFMLIKKIKESTYSSKPIQNGVFTLSWARYHMKSIWDAGAKEGAECIYSDTDSIFVHKEHFKKNAKFMLNGLKVPIIGSEVGQLELECEFDKLLCAGKKQYMGFYTYFQDGKPCIKEKKRFKGIPSNYIIPELYAHLLSGADKEAKIQFLKFRREWGSVKGYIENKTVKAT
B3: N687G: TP-DNAP1 variant (protein)
chain: MDYKDKALNDLRNVYADFDSLPLDFRQILIKDRATLLQKEDVEKKILERQEDAKKYAEYLKQSEIPERISLPNIKRHKGVSISFEETSEDMVLEPRPFIFDGLNIRCFRRETIFSLKNKILNMVKESSSFKNVSRQSVSFMYFKIFNKGKVIASTKSVNIYEDKIDERLEDLCNNFDDVLKKIIDVTYGYESLFVSETYSYVIFYAKSIYFPQPRCVNNWGNNIPNILTFDSFKLFTANKNNVSCIKQCSRFLWQKDFNTLEEMIEYKNGNICIVTPQLHINDVRDIKSFNDIRLYSESPIKTFSVIDNTITYLFYFKEHLGVIFNITKSRHDRRVTKFSPLSKFSDVKNITVCFDIESYFDPEKESNQVNIPFICCASIIYNKVIGNIVDFEGRDCVAQMIEYVVDICGELNISSVELIAHNGGGYDFHYILSSMYNPAAIKNILIRNNSFISFNFAHDGVKFSVKDSYSFLLCSLANASKAFLNEETFKKTDFPHHDLKTADDLYKVYKEWSSVNTEINHVVEKEKLLITSEHIVNFTKNDKSKTLIEWSKDYCRNDVLVLSKVWLEFKNAVEDIFNCELVDQTMTLAGLSYKLFQANMPFDVELRHPNKEDYFNMREALIGGRCISVNGIYKDVLCLDVKSLYPASMAFYDQPYGSFKRVSSRPKDELGIYYVRVTPNRNNKSGFFPIRSHNKITYNNFEESTYIAWYTNVDIDIGLSEGHNIEYIPFDSYGNIGYSWSKKGKIFEKYIKDVLYKLKIKYEKQNNKVKRNVIKIIMNSLWGKFAQKWVNFEYFIKSEDDIDFESEEAYKIWDTDFMLIKKIKESTYSSKPIQNGVFTLSWARYHMKSIWDAGAKEGAECIYSDTDSIFVHKEHFKKNAKFMLNGLKVPIIGSEVGQLELECEFDKLLCAGKKQYMGFYTYFQDGKPCIKEKKRFKGIPSNYIIPELYAHLLSGADKEAKIQFLKFRREWGSVKGYIENKTVKAT
B4: N683H: TP-DNAP1 variant (protein)
chain: MDYKDKALNDLRNVYADFDSLPLDFRQILIKDRATLLQKEDVEKKILERQEDAKKYAEYLKQSEIPERISLPNIKRHKGVSISFEETSEDMVLEPRPFIFDGLNIRCFRRETIFSLKNKILNMVKESSSFKNVSRQSVSFMYFKIFNKGKVIASTKSVNIYEDKIDERLEDLCNNFDDVLKKIIDVTYGYESLFVSETYSYVIFYAKSIYFPQPRCVNNWGNNIPNILTFDSFKLFTANKNNVSCIKQCSRFLWQKDFNTLEEMIEYKNGNICIVTPQLHINDVRDIKSFNDIRLYSESPIKTFSVIDNTITYLFYFKEHLGVIFNITKSRHDRRVTKFSPLSKFSDVKNITVCFDIESYFDPEKESNQVNIPFICCASIIYNKVIGNIVDFEGRDCVAQMIEYVVDICGELNISSVELIAHNGGGYDFHYILSSMYNPAAIKNILIRNNSFISFNFAHDGVKFSVKDSYSFLLCSLANASKAFLNEETFKKTDFPHHDLKTADDLYKVYKEWSSVNTEINHVVEKEKLLITSEHIVNFTKNDKSKTLIEWSKDYCRNDVLVLSKVWLEFKNAVEDIFNCELVDQTMTLAGLSYKLFQANMPFDVELRHPNKEDYFNMREALIGGRCISVNGIYKDVLCLDVKSLYPASMAFYDQPYGSFKRVSSRPKDELGIYYVRVTPNRHNKSNFFPIRSHNKITYNNFEESTYIAWYTNVDIDIGLSEGHNIEYIPFDSYGNIGYSWSKKGKIFEKYIKDVLYKLKIKYEKQNNKVKRNVIKIIMNSLWGKFAQKWVNFEYFIKSEDDIDFESEEAYKIWDTDFMLIKKIKESTYSSKPIQNGVFTLSWARYHMKSIWDAGAKEGAECIYSDTDSIFVHKEHFKKNAKFMLNGLKVPIIGSEVGQLELECEFDKLLCAGKKQYMGFYTYFQDGKPCIKEKKRFKGIPSNYIIPELYAHLLSGADKEAKIQFLKFRREWGSVKGYIENKTVKAT
B5: R692C: TP-DNAP1 variant (protein)
chain: MDYKDKALNDLRNVYADFDSLPLDFRQILIKDRATLLQKEDVEKKILERQEDAKKYAEYLKQSEIPERISLPNIKRHKGVSISFEETSEDMVLEPRPFIFDGLNIRCFRRETIFSLKNKILNMVKESSSFKNVSRQSVSFMYFKIFNKGKVIASTKSVNIYEDKIDERLEDLCNNFDDVLKKIIDVTYGYESLFVSETYSYVIFYAKSIYFPQPRCVNNWGNNIPNILTFDSFKLFTANKNNVSCIKQCSRFLWQKDFNTLEEMIEYKNGNICIVTPQLHINDVRDIKSFNDIRLYSESPIKTFSVIDNTITYLFYFKEHLGVIFNITKSRHDRRVTKFSPLSKFSDVKNITVCFDIESYFDPEKESNQVNIPFICCASIIYNKVIGNIVDFEGRDCVAQMIEYVVDICGELNISSVELIAHNGGGYDFHYILSSMYNPAAIKNILIRNNSFISFNFAHDGVKFSVKDSYSFLLCSLANASKAFLNEETFKKTDFPHHDLKTADDLYKVYKEWSSVNTEINHVVEKEKLLITSEHIVNFTKNDKSKTLIEWSKDYCRNDVLVLSKVWLEFKNAVEDIFNCELVDQTMTLAGLSYKLFQANMPFDVELRHPNKEDYFNMREALIGGRCISVNGIYKDVLCLDVKSLYPASMAFYDQPYGSFKRVSSRPKDELGIYYVRVTPNRNNKSNFFPICSHNKITYNNFEESTYIAWYTNVDIDIGLSEGHNIEYIPFDSYGNIGYSWSKKGKIFEKYIKDVLYKLKIKYEKQNNKVKRNVIKIIMNSLWGKFAQKWVNFEYFIKSEDDIDFESEEAYKIWDTDFMLIKKIKESTYSSKPIQNGVFTLSWARYHMKSIWDAGAKEGAECIYSDTDSIFVHKEHFKKNAKFMLNGLKVPIIGSEVGQLELECEFDKLLCAGKKQYMGFYTYFQDGKPCIKEKKRFKGIPSNYIIPELYAHLLSGADKEAKIQFLKFRREWGSVKGYIENKTVKAT
B6: N683T: TP-DNAP1 variant (protein)
chain: MDYKDKALNDLRNVYADFDSLPLDFRQILIKDRATLLQKEDVEKKILERQEDAKKYAEYLKQSEIPERISLPNIKRHKGVSISFEETSEDMVLEPRPFIFDGLNIRCFRRETIFSLKNKILNMVKESSSFKNVSRQSVSFMYFKIFNKGKVIASTKSVNIYEDKIDERLEDLCNNFDDVLKKIIDVTYGYESLFVSETYSYVIFYAKSIYFPQPRCVNNWGNNIPNILTFDSFKLFTANKNNVSCIKQCSRFLWQKDFNTLEEMIEYKNGNICIVTPQLHINDVRDIKSFNDIRLYSESPIKTFSVIDNTITYLFYFKEHLGVIFNITKSRHDRRVTKFSPLSKFSDVKNITVCFDIESYFDPEKESNQVNIPFICCASIIYNKVIGNIVDFEGRDCVAQMIEYVVDICGELNISSVELIAHNGGGYDFHYILSSMYNPAAIKNILIRNNSFISFNFAHDGVKFSVKDSYSFLLCSLANASKAFLNEETFKKTDFPHHDLKTADDLYKVYKEWSSVNTEINHVVEKEKLLITSEHIVNFTKNDKSKTLIEWSKDYCRNDVLVLSKVWLEFKNAVEDIFNCELVDQTMTLAGLSYKLFQANMPFDVELRHPNKEDYFNMREALIGGRCISVNGIYKDVLCLDVKSLYPASMAFYDQPYGSFKRVSSRPKDELGIYYVRVTPNRTNKSNFFPIRSHNKITYNNFEESTYIAWYTNVDIDIGLSEGHNIEYIPFDSYGNIGYSWSKKGKIFEKYIKDVLYKLKIKYEKQNNKVKRNVIKIIMNSLWGKFAQKWVNFEYFIKSEDDIDFESEEAYKIWDTDFMLIKKIKESTYSSKPIQNGVFTLSWARYHMKSIWDAGAKEGAECIYSDTDSIFVHKEHFKKNAKFMLNGLKVPIIGSEVGQLELECEFDKLLCAGKKQYMGFYTYFQDGKPCIKEKKRFKGIPSNYIIPELYAHLLSGADKEAKIQFLKFRREWGSVKGYIENKTVKAT

tested on: p1; experiment: p1 copy number by p1-encoded mKate2 fluorescence; assay type: cell-based, S. cerevisiae; settings: OR-Y24, measured in triplicate
Summary of the method: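 Steps: transform TP-DNAP1 variant into OR-Y24; passage until w.t. p1 displaced; dilute 1:10,000 and grow to saturation in triplicate; measure p1-encoded mKate2 fluorescence; convert to copy number via linear qPCR-based calibration. Four high-copy variants were checked directly by qPCR.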

Compared with B1, B2 is lower in “Mean fold-increase over w.t. (p1 copy number)” value (from here on “Mean fold-increase”): 1.93 fold for the first, 1.54 fold for the second.

First: B3
Second: B4
The “Mean fold-increase” value of the first is lower: 1.65 fold for the first, 1.68 fold for the second.

Going from B5 to B6, the “Mean fold-increase” value falls from 1.69 fold to 1.57 fold.
